B1: WD repeat-containing protein slp1 (Schizosaccharomyces pombe (strain ATCC 38366 / 972)), P78972 (parent)
chain: MEIAGNSSTISPTFSTPTKKRNLVFPNSPITPLHQQALLGRNGRSSKRCSPKSSFIRNSPKIDVVNTDWSIPLCGSPRNKSRPASRSDRFIPSRPNTANAFVNSISSDVPFDYSESVAEACGFDLNTRVLAFKLDAPEAKKPVDLRTQHNRPQRPVVTPAKRRFNTTPERVLDAPGIIDDYYLNLLDWSNLNVVAVALERNVYVWNADSGSVSALAETDESTYVASVKWSHDGSFLSVGLGNGLVDIYDVESQTKLRTMAGHQARVGCLSWNRHVLSSGSRSGAIHHHDVRIANHQIGTLQGHSSEVCGLAWRSDGLQLASGGNDNVVQIWDARSSIPKFTKTNHNAAVKAVAWCPWQSNLLATGGGTMDKQIHFWNAATGARVNTVDAGSQVTSLIWSPHSKEIMSTHGFPDNNLSIWSYSSSGLTKQVDIPAHDTRVLYSALSPDGRILSTAASDENLKFWRVYDGDHVKRPIPITKTPSSSITIR
partner: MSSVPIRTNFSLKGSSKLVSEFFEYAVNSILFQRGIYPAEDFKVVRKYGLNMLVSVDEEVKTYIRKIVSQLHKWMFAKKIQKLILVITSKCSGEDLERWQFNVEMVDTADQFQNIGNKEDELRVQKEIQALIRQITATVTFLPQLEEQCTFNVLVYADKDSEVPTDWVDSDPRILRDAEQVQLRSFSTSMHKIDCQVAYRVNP

Variants of: B1
Details: with mad2_schpo mad2, O14417

Variant | effect of a mutation on the interaction
A131P;F132Y | disrupting interaction
